How the values were obtained:
Grb2 SH2 = Grb2 SH2 (UniProt P62993); assay: SH2 binding enrichment of the phosphorylated peptide, bacterial display (enrichment ratio); higher = better substrate or ligand; peptides without Tyr show the background
c-Src SH2 = assay: as above
SHP2-C SH2 = assay: as above
EPHB2 = EPHB2 (UniProt P29323); assay: phosphorylation enrichment, bacterial display (enrichment ratio); higher = better substrate or ligand; peptides without Tyr show the background
EPHB1 = EPHB1 (UniProt P54762); assay: as above
FGFR3 = FGFR3 (UniProt P22607); assay: as above
MERTK = MERTK (UniProt Q12866); assay: as above
c-Src = assay: as above
c-Abl (mouse) = assay: as above
Hck = Hck (UniProt P08631); assay: as above
Jak2 = Jak2 (UniProt O60674); assay: as above
Fes = Fes (UniProt P07332); assay: as above
Fyn = Fyn (UniProt P06241); assay: as above
Fer (mouse) = assay: as above
AncSZ = assay: as above
FGFR1 = FGFR1 (UniProt P11362); assay: as above
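Wherever SH2 binding enrichment of the phosphorylated peptide, bacterial display is given: peptide library displayed on the E. coli surface as eCPX fusions, selected cells deep-sequenced, score is each peptide's frequency after selection divided by its frequency in the input.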
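Wherever phosphorylation enrichment, bacterial display is given: 11-residue human phosphosite peptides and single-mutation variants displayed on the E. coli surface, counted by deep sequencing, each peptide's frequency after selection divided by its frequency in the unselected input library; frequency after pTyr selection over input frequency; kinase dosed for 20-30% of maximal phosphorylation in three min.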

Sequence of MERTK (Q12866 whole entry, looked up): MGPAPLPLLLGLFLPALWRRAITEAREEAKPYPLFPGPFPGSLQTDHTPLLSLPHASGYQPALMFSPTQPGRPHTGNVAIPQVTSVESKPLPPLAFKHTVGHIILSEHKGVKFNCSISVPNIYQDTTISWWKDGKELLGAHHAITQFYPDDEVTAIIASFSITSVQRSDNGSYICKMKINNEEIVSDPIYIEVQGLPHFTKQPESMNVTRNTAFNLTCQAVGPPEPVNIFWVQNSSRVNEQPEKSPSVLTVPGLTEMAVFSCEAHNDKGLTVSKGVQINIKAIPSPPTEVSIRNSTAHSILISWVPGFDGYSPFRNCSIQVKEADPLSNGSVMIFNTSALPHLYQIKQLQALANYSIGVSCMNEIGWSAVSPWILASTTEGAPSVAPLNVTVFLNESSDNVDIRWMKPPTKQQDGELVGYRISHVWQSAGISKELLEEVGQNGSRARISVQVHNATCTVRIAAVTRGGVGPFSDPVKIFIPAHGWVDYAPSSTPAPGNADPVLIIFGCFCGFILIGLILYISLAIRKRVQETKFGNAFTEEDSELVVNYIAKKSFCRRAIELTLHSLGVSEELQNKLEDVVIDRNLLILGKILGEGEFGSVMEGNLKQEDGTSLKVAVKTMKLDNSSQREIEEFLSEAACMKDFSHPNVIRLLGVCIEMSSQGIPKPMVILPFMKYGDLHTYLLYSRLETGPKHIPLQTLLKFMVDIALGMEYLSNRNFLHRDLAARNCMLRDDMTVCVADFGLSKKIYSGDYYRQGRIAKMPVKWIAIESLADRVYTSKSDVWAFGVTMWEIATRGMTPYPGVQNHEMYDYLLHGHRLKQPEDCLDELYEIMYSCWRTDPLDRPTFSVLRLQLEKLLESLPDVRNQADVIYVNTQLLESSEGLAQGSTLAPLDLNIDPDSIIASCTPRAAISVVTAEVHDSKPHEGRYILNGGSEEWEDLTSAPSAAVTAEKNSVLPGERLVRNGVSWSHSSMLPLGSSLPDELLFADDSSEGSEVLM
Sequence of Fes (P07332 whole entry, looked up): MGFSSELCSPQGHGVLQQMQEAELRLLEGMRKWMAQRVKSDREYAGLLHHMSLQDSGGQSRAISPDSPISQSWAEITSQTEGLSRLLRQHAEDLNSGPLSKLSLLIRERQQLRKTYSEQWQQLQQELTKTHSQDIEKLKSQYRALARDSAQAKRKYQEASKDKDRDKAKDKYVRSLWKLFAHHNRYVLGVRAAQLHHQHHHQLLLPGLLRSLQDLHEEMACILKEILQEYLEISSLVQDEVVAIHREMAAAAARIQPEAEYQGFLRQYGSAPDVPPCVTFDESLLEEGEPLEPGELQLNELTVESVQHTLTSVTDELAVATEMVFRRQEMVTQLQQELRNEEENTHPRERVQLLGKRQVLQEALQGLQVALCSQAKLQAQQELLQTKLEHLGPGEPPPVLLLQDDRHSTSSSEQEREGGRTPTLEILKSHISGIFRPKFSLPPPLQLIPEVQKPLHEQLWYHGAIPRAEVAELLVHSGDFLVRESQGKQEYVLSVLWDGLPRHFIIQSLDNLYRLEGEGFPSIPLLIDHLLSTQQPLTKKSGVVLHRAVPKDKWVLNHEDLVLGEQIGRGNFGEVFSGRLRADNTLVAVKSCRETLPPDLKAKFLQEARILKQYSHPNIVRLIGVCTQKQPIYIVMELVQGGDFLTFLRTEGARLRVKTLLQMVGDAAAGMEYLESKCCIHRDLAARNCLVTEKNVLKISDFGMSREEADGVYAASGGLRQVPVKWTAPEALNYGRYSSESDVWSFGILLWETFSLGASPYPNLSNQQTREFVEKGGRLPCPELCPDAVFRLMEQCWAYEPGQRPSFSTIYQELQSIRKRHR
Sequence of EPHB1 (P54762 whole entry, looked up): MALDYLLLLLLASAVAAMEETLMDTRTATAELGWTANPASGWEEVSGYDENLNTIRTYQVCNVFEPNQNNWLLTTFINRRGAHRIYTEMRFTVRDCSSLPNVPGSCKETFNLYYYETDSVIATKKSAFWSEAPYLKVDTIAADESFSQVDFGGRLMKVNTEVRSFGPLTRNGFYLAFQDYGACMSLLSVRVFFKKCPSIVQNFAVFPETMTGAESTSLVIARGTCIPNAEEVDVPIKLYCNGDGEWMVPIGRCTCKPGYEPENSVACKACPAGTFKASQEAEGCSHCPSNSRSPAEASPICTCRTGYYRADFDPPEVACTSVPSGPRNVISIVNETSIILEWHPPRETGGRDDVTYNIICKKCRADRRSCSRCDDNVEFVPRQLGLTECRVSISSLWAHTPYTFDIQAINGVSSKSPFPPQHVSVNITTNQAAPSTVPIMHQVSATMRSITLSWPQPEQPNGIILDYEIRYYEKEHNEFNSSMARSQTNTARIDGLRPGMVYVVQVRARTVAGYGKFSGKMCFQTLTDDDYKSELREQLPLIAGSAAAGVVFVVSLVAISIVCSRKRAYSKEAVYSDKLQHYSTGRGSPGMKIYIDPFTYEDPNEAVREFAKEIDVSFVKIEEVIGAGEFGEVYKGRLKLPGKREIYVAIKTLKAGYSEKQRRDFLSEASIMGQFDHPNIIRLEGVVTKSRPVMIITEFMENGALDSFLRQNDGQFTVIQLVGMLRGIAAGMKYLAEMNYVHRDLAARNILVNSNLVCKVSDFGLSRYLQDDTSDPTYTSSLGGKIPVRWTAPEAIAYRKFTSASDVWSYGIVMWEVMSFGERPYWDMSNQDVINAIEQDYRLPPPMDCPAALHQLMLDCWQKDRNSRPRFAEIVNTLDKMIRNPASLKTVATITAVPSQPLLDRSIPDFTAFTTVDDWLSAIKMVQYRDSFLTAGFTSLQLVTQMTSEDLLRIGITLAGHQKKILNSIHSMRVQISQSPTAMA
Sequence of FGFR1 (P11362 whole entry, looked up, the tested form may be a part): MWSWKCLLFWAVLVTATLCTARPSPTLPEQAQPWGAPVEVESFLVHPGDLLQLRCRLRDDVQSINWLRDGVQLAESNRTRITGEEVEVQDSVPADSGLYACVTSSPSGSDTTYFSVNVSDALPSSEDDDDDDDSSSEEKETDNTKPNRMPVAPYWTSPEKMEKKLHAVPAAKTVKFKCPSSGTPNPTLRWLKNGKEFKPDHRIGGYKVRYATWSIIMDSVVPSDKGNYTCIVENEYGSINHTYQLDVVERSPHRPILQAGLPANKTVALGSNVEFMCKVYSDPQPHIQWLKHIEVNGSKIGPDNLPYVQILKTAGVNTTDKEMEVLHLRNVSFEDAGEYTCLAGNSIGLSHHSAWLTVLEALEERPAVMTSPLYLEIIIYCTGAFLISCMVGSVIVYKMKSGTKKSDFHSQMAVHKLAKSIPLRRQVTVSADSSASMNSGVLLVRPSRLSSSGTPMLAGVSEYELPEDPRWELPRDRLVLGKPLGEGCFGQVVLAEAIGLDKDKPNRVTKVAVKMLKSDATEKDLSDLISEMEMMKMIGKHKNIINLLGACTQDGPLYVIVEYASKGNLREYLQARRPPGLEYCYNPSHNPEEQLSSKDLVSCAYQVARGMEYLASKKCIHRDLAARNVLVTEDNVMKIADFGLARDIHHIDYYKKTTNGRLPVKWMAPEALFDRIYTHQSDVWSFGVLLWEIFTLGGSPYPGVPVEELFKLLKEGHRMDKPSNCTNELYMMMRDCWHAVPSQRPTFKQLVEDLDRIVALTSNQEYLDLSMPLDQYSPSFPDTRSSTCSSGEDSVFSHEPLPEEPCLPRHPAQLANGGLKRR
Sequence of Fyn (P06241 whole entry, looked up): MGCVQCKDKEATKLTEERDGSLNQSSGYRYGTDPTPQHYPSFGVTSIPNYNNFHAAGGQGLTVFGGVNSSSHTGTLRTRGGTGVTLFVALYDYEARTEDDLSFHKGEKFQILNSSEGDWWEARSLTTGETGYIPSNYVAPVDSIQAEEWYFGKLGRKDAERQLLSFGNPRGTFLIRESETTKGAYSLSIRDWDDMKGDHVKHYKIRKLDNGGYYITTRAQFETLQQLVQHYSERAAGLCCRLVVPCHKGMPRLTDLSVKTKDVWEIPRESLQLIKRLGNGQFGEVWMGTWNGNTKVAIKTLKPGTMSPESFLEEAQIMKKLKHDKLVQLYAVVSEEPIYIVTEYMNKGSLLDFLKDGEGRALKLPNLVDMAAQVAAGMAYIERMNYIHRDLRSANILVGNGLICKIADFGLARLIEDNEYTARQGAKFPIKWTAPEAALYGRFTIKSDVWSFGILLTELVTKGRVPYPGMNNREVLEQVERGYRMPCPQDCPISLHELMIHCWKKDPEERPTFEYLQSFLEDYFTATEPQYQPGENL
Sequence of Hck (P08631 whole entry, looked up): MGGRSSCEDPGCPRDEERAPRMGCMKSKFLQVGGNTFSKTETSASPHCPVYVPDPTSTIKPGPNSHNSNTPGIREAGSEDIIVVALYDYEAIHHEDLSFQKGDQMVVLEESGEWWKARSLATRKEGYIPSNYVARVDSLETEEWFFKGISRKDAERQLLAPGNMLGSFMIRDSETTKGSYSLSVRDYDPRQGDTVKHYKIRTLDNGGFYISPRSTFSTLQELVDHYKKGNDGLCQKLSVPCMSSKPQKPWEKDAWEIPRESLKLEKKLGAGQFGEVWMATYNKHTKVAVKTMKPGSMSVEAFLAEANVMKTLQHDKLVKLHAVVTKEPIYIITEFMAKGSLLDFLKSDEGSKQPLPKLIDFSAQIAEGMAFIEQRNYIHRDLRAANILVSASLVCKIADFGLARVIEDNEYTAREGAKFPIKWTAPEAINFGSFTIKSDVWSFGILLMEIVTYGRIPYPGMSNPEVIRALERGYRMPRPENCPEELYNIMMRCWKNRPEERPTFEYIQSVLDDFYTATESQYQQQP

| Sequence | SH2 binding enrichment (Grb2 SH2) | SH2 binding enrichment (c-Src SH2) | SH2 binding enrichment (SHP2-C SH2) | phosphorylation enrichment (EPHB2) | phosphorylation enrichment (EPHB1) | phosphorylation enrichment (FGFR3) | phosphorylation enrichment (MERTK) | phosphorylation enrichment (c-Src) | phosphorylation enrichment (c-Abl (mouse)) | phosphorylation enrichment (Hck) | phosphorylation enrichment (Jak2) | phosphorylation enrichment (Fes) | phosphorylation enrichment (Fyn) | phosphorylation enrichment (Fer (mouse)) | phosphorylation enrichment (AncSZ) | phosphorylation enrichment (FGFR1) |
| --- | --- | --- | --- | --- | --- | --- | --- | --- | --- | --- | --- | --- | --- | --- | --- | --- |
| FKDGQYWIRGQ [ACSF3_Y466_R471Q] | 0.856 | 0.592 | 0.688 | 0.598 | 0.522 | 0.663 | 0.385 | 0.426 | 0.433 | 0.915 | 0.507 | 0.876 | 0.477 | 0.32 | 0.831 | 0.598 |
| FLTQHHDAKPQ [ANG_Y38_Y38H] | 0.876 | 0.604 | 0.669 | 0.381 | 0.33 | 0.451 | 0.44 | 0.396 | 0.552 | 0.353 | 0.464 | 0.742 | 0.279 | 0.468 | 0.497 | 0.447 |
| FMCKVYSDRQP [FGFR1_Y280_P283R] | 0.771 | 0.527 | 0.666 | 0.577 | 0.577 | 0.808 | 0.463 | 0.634 | 0.879 | 0.582 | 1.35 | 1.54 | 0.544 | 0.587 | 1.52 | 0.494 |
| FNSLLYQVPTS [CALCOCO2_Y358_P357L] | 0.818 | 0.538 | 0.91 | 18.8 | 12 | 1.32 | 12.5 | 3.65 | 17.8 | 6.55 | 2.1 | 1.06 | 2.58 | 15 | 2.77 | 1.17 |
| FPKAHYHWLVL [APTX_Y214_R213H_YF] | 1.86 | 1.54 | 1.7 | 0.491 | 0.448 | 1.87 | 0.619 | 0.396 | 0.716 | 0.444 | 0.864 | 1.29 | 0.447 | 0.645 | 0.819 | 2.69 |

More lines, main results first:

| SH2 binding enrichment (Grb2 SH2) | SH2 binding enrichment (c-Src SH2) | SH2 binding enrichment (SHP2-C SH2) | Sequence | phosphorylation enrichment (EPHB2) | phosphorylation enrichment (EPHB1) | phosphorylation enrichment (FGFR3) | phosphorylation enrichment (MERTK) | phosphorylation enrichment (c-Src) | phosphorylation enrichment (c-Abl (mouse)) | phosphorylation enrichment (Hck) | phosphorylation enrichment (Jak2) | phosphorylation enrichment (Fes) | phosphorylation enrichment (Fyn) | phosphorylation enrichment (Fer (mouse)) | phosphorylation enrichment (AncSZ) | phosphorylation enrichment (FGFR1) |
| --- | --- | --- | --- | --- | --- | --- | --- | --- | --- | --- | --- | --- | --- | --- | --- | --- |
| 1.01 | 0.477 | 0.973 | FIATQYSLRPR [LBR_Y166_YF] | 0.518 | 0.39 | 0.471 | 0.506 | 0.464 | 0.525 | 0.454 | 0.551 | 0.671 | 0.458 | 0.399 | 0.635 | 0.532 |
| 0.892 | 0.402 | 0.923 | FKPENYRRLDI [VHL_Y175_V170F] | 0.425 | 0.367 | 0.544 | 0.41 | 0.312 | 0.63 | 0.383 | 0.747 | 0.738 | 0.32 | 0.376 | 0.599 | 0.414 |
| 1.35 | 0.883 | 1.36 | FMMMRYSQNIR [SDAD1_Y656_V660I] | 1.23 | 0.77 | 0.795 | 0.414 | 0.397 | 0.61 | 0.53 | 0.955 | 1.3 | 0.513 | 0.509 | 1.17 | 0.663 |
| 1.74 | 2.38 | 3.79 | FQCKHYACIRQ [TIMP3_Y182_S179C_YF] | 0.35 | 0.378 | 0.501 | 0.414 | 0.393 | 0.634 | 0.445 | 0.508 | 0.72 | 0.365 | 0.379 | 0.542 | 0.341 |

— the supplement of paper PMC10065799, “High-throughput profiling of sequence recognition by tyrosine kinases and SH2 domains using bacterial peptide display” (eLife, 2023)
